Test [1] has as its target soluble human FcRn (shFcRn) (human) (UniProt P55899). Briefly: Biacore, IgG immobilized, hFcRn flowed, pH 7.4. For orientation: SPR reads the build-up and loss of mass on a sensor chip optically.
For test [2], the target named is rat FcRn/rat β2M expressed on cells (rat) (UniProt P13599). The experiment in a line: FACS blocking of IgG-Fc, IgG, pH 6.
Sequence of rat FcRn/rat β2M expressed on cells (rat) (P13599 23-366 limits assumed, chain 1 of 2): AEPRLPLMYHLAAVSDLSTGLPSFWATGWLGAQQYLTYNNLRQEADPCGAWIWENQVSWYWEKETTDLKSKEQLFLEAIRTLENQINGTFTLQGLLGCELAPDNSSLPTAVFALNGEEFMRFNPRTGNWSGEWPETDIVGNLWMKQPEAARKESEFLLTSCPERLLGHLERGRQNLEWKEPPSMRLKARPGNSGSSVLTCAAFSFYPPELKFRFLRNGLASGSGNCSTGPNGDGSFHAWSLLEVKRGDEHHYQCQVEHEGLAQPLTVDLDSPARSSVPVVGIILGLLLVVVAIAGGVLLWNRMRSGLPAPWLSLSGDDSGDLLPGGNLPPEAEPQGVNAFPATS
Sequence of rat FcRn/rat β2M expressed on cells (rat) (b2m, as listed by the source limits assumed, chain 2 of 2): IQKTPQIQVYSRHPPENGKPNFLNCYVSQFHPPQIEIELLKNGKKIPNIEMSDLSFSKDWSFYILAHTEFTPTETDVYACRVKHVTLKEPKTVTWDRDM

Sequence of soluble human FcRn (shFcRn) (human) (P55899 24-297 limits assumed, chain 1 of 2): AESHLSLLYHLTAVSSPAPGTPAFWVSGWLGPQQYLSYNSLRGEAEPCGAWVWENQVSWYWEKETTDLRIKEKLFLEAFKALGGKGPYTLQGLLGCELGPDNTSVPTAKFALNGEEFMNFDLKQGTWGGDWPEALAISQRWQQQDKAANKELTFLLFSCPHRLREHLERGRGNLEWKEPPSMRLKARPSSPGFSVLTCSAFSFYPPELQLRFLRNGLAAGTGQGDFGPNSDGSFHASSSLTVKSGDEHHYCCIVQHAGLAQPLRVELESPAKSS
Sequence of soluble human FcRn (shFcRn) (human) (b2m, as listed by the source limits assumed, chain 2 of 2): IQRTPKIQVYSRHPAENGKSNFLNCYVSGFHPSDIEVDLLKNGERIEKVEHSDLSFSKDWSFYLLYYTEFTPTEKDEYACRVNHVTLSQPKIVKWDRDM

For the substance M161-B04 IgG (DX-2504) (antibody), the Kd (as a rule, the equilibrium constant for the complex coming apart) in test [1] worked out at 7.06 nM.
Consider 1G3 mouse anti-rat FcRn IgG (antibody), for which, in test [2], the IC50 – broadly, the concentration at which inhibition is half-maximal – is 1.5 nM.

For the origin of these results see patent publication US20090324614A1.
